From paper PMC12772356

Legend:
[1] = tested on: ThHSF1 DBD (Trametes hirsuta AH28-2); test: FP; settings: 5x binding buffer pH 6.8 (25 mM HEPES, 5 mM MgCl2, 150 mM KCl, 1 mM DTT, 5% glycerol), EMSA 100 nM probe, 16 C 30 min, then 37 C 30 min, 6% native PAGE
[2] = tested on: ThHSF1 full-length (Trametes hirsuta AH28-2); test: FP; settings: without ThHspA1, 5x binding buffer pH 6.8 (25 mM HEPES, 5 mM MgCl2, 150 mM KCl, 1 mM DTT, 5% glycerol), EMSA 100 nM probe, 16 C 30 min, then 37 C 30 min, 6% native PAGE
[3] = biological target: ThHSF1 full-length;ThHspA1 full-length (Trametes hirsuta AH28-2;Trametes hirsuta AH28-2) (UniProt A0AAD7TN48); test: FP; settings: ThHspA1 added, 5x binding buffer pH 6.8 (25 mM HEPES, 5 mM MgCl2, 150 mM KCl, 1 mM DTT, 5% glycerol), EMSA 100 nM probe, 16 C 30 min, then 37 C 30 min, 6% native PAGE
[4] = biological target: ThHSF1, heat shock transcription factor of Trametes hirsuta AH28-2 (full-length protein) (Trametes hirsuta AH28-2); test: ITC; iTC200, 25°C; 50 mM Tris, 500 mM NaCl, pH 7.5; 5 µM ThHspA1 titrated against 1 µM ThHSF1
[5] = biological target: ThHspA1, Hsp70 homolog of Trametes hirsuta AH28-2 (full-length protein) (Trametes hirsuta AH28-2); test: dynamic light scattering; purified full-length ThHSF1 alone, ThHspA1 alone and the two together (Fig. S10); conditions not given
[6] = biological target: ThHSF1, heat shock transcription factor of Trametes hirsuta AH28-2 (full-length protein) (Trametes hirsuta AH28-2); test: ITC; settings: natural protein

“TTCGAACGCACCGAAACCATCCCGAACTTGGTCGAA (double strand) [lacF promoter probe]” gave a Kd [1] of 4.83 µM.

“TACGCCTTAAACTGACTTACATGCAA (double strand) [lacA mutant probe 1]” gave a Kd [1] of 4.59 µM.

“TACGCCTTGAACTGACTTACATGCAA (double strand) [lacA promoter probe WT (26 bp)]” showed a Kd [1] of 0.961 µM, a Kd [2] of 1.03 µM and a Kd [3] of 0.673 µM.

“ThHspA1, Hsp70 homolog of Trametes hirsuta AH28-2 (full-length protein) (natural protein)” gave a Kd [4] of 0.105 µM and a stoichiometry N [5] of 6.

With “TACGCCAAGAACTGACTTACATGCAA (double strand) [lacA mutant probe 5]” the Kd [1] was 11.7 µM.

For “TACGCCTAGAACTGACTTACATGCAA (double strand) [lacA mutant probe 4]”, the Kd [1] was 5.2 µM.

In the case of “AGTTCAGTATGTCTTGAAGATTATGCGGTCAGAAAC (double strand) [lacB promoter probe]”, the Kd [1] is reported as 5.46 µM.

With “ThHspA1, Hsp70 homolog of Trametes hirsuta AH28-2 (full-length protein)” the Ka [6] was 1.16e+07 M⁻¹.

Work on “TACGCCTTATACTGACTTACATGCAA (double strand) [lacA mutant probe 2]” yielded a Kd [1] of 14.7 µM.
